Where a chain is given by its changes, count along the chain named.
B1: G2_neo2_40_1F_seq27_S24 (designed binder)
chain: TNKKAQLHAEFALYDALMLLNLSSESNERLNDIITWLQSIIFTGTYDPDMVKEAVKLADEIEDEMRKRKIDTEDYVVNLRYILQELA
B2: G2_neo2_40_1F_seq29_S8 (designed binder)
chain: EDYYSNLKLILEELAREMERNGLSDKAEEWRQWKKIVERIRQIRSNNSDLNEAKELLNRLITYIQSQIFEVLEGVGETDQEKKEESWKKWELHLEHALLDVLMLLND
B3: G1_neo2_40_1F_H1 (designed binder)
chain: STKKTQLLIEHALLDALDMSRNLPEPNEKLSRIITTMQSWIFTGKIDGDGAQQLAKEVEELEQEHEKRGEDVEDEASNLKVILLELA
B4: G1_neo2_40_1F_H2 (designed binder)
chain: B3 chain with I9L, D18H, S20R, Q53E, E70R, E75D
B5: G1_neo2_40_1F_H3 (designed binder)
chain: B3 chain with D18N, S20R, R21K, N22K, T36D, E70G, E75Y
B6: G1_neo2_40_1F_H4 (designed binder)
chain: B3 chain with I9L, D18H, N22E, S31N, T36D, Q53D, E70G, E75Y
B7: G1_neo2_40_1F_H5 (designed binder)
chain: B3 chain with D18H, N22K, Q53H, E70G, D71E
B8: G1_neo2_40_1F_M3 (designed binder)
chain: STEKTQHAAEDALRDALMLRNLLNEPNEKLARIITTMQSWQFTEKIDGDGAQELAKEVEELQQEHEVRGIDVEDYASNLKVILLQLA
B9: G1_neo2_40_1F_M1 (designed binder)
chain: B8 chain with H7L, D11H, R20K, N21H, E44G, Q85H
B10: G1_neo2_40_1F_M2 (designed binder)
chain: B8 chain with E3K, K4N, H7L, R14L, V67E
B11: G2_neo2_40_1F_seq04 (designed binder)
chain: TTKKIQLLVEHALLDALMILNLSSESNEKLNRIITTLQSWIFRGEIDPDRARELAKLLEEIREEMRKRGIDTEDYVSNMIVIIRELA
B12: G2_neo2_40_1F_seq12 (designed binder)
chain: TEKKLQLLVEHALLDALMILNLWSESNEKLNRIITTMQSWIFTGRIDPDKAEELAKLVEELREEARERGIDTEDYVSNLKVILKELS
B13: G2_neo2_40_1F_seq16 (designed binder)
chain: TKKKIQLLVEHALLDALMILNLSSKSNEKLNRIITTMQSWIFNGTIDPDRARELAKLVEEIRDEMEKNGIDTEDYVSNLKVILEELA
B14: G2_neo2_40_1F_seq26 (designed binder)
chain: TKKKYQLLIEHALLDALMILNLWSESNEKLNRIITTMQSWIFTGTYDPDKAEELEKLAKEIEDEARERGIDTEDYMSNLRVILKELS
B15: G2_neo2_40_1F_seq27 (designed binder)
chain: B1 chain with N2K, H8L, F11H, Y14L, D32R, K69G, V77S, Y81V
B16: G2_neo2_40_1F_dsn29 (designed binder)
chain: B2 chain with L9V, V71I, L72S, G74R, V75I, G76R, E91Q, H93L
notes: E. coli, N-terminal 6xHis tag and thrombin site
B17: G2_neo2_40_1F_dsn30 (designed binder)
chain: PEKKRQLLLEHILLDALMLLNLLETNPQNTESKFEDYISNAEVIAEELAKLMESLGLSDEAEKFKKIKQWLREVWRIWSSTNWSTLEDKARELLNRIITTIQSQIFY
notes: as for B16
B18: G2_neo2_40_1F_dsn40 (designed binder)
chain: PEKKRQLLAEHALLDALMILNIIRTNSDNTESKLEDYISNLKVILEEIARLMESLGLSDEAEKAKEAMRLADKAGSTASEEEKKEAMNRVITWAQSWIFN
notes: as for B16

biological target: T1, human IL-2 receptor βγc heterodimer (hIL-2Rβγc), soluble (human, UniProt P14784 27-240; P31785 23-254, biotin on the C-terminal biotin acceptor peptide); assay: affinity maturation by yeast display for human and mouse IL-2Rβνc
T1 construct: also called HsIL-2Rβγc; hIL-2Rβνc
T1 sequence 1: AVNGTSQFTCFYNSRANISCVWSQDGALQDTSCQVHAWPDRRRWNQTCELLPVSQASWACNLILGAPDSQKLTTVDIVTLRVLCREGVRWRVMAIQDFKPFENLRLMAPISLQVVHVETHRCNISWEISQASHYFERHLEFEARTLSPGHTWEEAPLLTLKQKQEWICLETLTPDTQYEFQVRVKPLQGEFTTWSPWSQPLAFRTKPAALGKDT
T1 sequence 2: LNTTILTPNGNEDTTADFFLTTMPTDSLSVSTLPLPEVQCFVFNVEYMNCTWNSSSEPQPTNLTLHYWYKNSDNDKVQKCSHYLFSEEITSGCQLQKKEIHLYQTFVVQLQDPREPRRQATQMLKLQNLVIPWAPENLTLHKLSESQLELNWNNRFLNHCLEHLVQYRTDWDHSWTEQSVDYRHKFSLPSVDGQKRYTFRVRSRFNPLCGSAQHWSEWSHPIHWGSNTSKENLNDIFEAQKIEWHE
Description: (§1) The vector was linearized by 100 fold overdigestion by NdeI and XhoI (New England Biolabs) and then purified by gel extraction (Qiagen). The genes included 50 bases of overlap with the vector on both the 5′ and 3′ ends such that homologous recombination would place the genes in frame between the AGA2 gene and the myc tag on the vector. Yeast were grown in C-Trp-Ura media prior to induction in SGCAA media as previously described. […] After approximately 30 minutes, cells were washed again in chilled buffer, and then incubated on ice for 5 minutes with FITC-conjugated anti-c-Myc antibody (1 uL per 3×10⁶ cells) and streptavidin-phycoerythrin (1 uL per 100 uL volume of yeast). Yeast were then washed and counted by flow cytometry (Accuri C6) or sorted by FACS (Sony SH800).

Binder | binding result
B1 | binds
B2 | binds

biological target: T2, mouse IL-2 receptor βγc heterodimer (mIL-2Rβγc), soluble (mouse, UniProt P16297 27-240; P34902 23-263, biotin on the C-terminal biotin acceptor peptide); assay: as above
T2 construct: extracellular domain; also called MmIL-2Rβγc; mIL-2Rβνc
T2 sequence 1: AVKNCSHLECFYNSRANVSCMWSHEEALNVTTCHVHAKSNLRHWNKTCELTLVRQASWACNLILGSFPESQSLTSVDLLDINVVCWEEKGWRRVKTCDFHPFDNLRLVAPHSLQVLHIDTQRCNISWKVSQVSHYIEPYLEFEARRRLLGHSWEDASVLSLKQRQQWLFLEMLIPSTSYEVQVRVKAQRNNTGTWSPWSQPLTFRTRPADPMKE
T2 sequence 2: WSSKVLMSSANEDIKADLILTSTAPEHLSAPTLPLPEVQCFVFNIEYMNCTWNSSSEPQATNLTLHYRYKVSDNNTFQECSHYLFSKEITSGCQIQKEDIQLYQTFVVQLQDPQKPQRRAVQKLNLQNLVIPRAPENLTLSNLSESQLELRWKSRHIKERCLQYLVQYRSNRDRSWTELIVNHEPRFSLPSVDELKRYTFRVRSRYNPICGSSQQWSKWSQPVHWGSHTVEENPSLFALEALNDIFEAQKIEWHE
Description: as §1

Binder | binding result
B1 | binds
B2 | binds

biological target: T3, mouse IL-2 receptor β subunit (mIL-2Rβ) (mouse, UniProt P16297 27-240, biotin on the C-terminal biotin acceptor peptide); assay: SPR, equilibrium titration; biotinylated IL-2Rβ on streptavidin chip
T3 construct: extracellular domain; Biotinylated form for SPR; also called MmIL-2Rβ; murine IL-2Rβ
T3 sequence: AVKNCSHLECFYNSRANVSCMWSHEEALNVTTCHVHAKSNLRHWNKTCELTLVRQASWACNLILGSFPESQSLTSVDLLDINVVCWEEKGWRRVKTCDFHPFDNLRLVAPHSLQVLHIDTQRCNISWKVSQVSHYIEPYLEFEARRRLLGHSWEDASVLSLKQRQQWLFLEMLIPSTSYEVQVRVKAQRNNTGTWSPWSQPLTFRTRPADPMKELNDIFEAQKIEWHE
Description: (§2) Less than 100 response units (RU) of each ligand was immobilized to minimize mass transfer effects. […] Surface regeneration for all interactions was conducted using 15 s exposure to 1 M MgCl2 in 10 mM sodium acetate pH 5.5. SPR experiments were carried out in HBS-P+ buffer (GE Healthcare) supplemented with 0.2% bovine serum albumin (BSA) at 25° C. and all binding studies were performed at a flow rate of […] to prevent analyte rebinding. Data was visualized and processed using the Biacore T100 evaluation software version 2.0 (GE Healthcare). Equilibrium titration curve fitting and equilibrium binding dissociation (KD) value determination was implemented using GraphPad Prism assuming all binding interactions to be first order. Biolayer interferometry: binding data were collected in a Octet RED96 (ForteBio, Menlo Park, Calif.) and processed using the instrument's integrated software using a 1:1 binding model. […] Analyte proteins were diluted from concentrated stocks into binding buffer. After baseline measurement in binding buffer alone, the binding kinetics were monitored by dipping the biosensors in wells containing 100 nM of the designed protein (association) and then dipping the sensors back into baseline wells (dissociation).

Binder | Kd | binding result
B3 | 6800 nM | –
B4 | 68300 nM | –
B5 | – | no binding
B6 | 10100 nM | –
B7 | 45300 nM | –
B8 | 402 nM | –
B9 | 214 nM | –
B10 | 2600 nM | –

biological target: T2, mouse IL-2 receptor βγc heterodimer …; assay: SPR, equilibrium titration; IL-2Rγ on streptavidin chip, saturating IL-2Rβ in solution
Description: as §2

Binder | Kd
B3 | 2650 nM
B4 | 964 nM
B5 | 3830 nM
B6 | 392 nM
B7 | 5120 nM
B8 | 64.8 nM
B9 | 4.3 nM
B10 | 886 nM
B11 | 80 nM
B12 | 39.1 nM
B13 | 71.5 nM
B14 | 27.8 nM
B15 | 13.6 nM
B16 | 38.2 nM
B17 | 925 nM
B18 | 69.2 nM

biological target: T4, mouse IL-2Rβγc on murine cells (CTLL-2 T cells, primary CD4+ T cells) (mouse, UniProt P16297 27-539; P34902 23-369); assay: cell-based or functional assay
T4 sequence (looked up) 1: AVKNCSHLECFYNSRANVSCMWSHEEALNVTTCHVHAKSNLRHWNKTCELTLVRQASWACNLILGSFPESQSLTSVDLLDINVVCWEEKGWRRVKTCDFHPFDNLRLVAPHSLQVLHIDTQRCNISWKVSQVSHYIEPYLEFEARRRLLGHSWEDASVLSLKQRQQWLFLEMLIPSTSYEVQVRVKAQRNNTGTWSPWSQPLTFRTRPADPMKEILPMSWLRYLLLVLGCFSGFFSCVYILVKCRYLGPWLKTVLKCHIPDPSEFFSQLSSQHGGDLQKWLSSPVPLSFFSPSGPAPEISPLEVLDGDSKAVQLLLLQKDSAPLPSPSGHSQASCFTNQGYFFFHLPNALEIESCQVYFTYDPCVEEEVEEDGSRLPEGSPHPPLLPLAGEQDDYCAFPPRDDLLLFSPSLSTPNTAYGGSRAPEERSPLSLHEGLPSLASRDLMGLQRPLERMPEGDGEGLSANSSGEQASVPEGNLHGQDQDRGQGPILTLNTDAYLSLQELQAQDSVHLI
T4 sequence (looked up) 2: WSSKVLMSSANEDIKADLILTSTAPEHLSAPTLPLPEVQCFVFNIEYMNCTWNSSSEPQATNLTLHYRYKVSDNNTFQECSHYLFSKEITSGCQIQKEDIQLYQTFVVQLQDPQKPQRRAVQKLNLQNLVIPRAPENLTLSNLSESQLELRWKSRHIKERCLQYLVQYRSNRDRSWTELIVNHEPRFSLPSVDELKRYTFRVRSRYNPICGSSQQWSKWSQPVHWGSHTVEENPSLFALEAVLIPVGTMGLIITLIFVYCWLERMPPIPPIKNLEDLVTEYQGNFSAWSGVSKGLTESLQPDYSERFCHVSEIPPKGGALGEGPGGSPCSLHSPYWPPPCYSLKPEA

Binder | EC50 (CD25+) pSTAT5, murine T (CTLL-2, CD25+) cells
B3 | 37.4 nM
B4 | 9.38 nM
B5 | 35.2 nM
B6 | 0.93 nM
B7 | 84.7 nM
B8 | 0.08 nM
B9 | 0.007 nM
B10 | 3.11 nM
B11 | 1.95 nM
B12 | 1.74 nM
B13 | 2.2 nM
B14 | 1.06 nM
B15 | 0.24 nM
B16 | 0.48 nM
B17 | 7.61 nM
B18 | 0.5 nM

From patent US20200339648A1 (University of Washington, published 2020)
